According to patent publication US20110009473A1 (CEDARS SINAI MEDICAL CENTER, published 2011):

T1: His-tagged PTTG1
T1 chain: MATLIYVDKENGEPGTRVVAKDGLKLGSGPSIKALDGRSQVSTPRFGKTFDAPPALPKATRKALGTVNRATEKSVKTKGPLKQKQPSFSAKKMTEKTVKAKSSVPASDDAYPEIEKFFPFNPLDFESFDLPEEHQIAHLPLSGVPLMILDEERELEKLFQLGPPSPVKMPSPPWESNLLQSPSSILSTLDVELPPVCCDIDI


Tests used:
His-tagged PTTG1 = target: T1, His-tagged PTTG1
BSA = target: T2, BSA (bovine, UniProt P02769 25-607); test: protein microarray probed with biotinylated PTTG1, Streptavidin-Alexa Fluor 647
T2 construct: Control on the protein microarray; also called bovine serum albumin
T2 sequence (P02769 25-607 limits assumed): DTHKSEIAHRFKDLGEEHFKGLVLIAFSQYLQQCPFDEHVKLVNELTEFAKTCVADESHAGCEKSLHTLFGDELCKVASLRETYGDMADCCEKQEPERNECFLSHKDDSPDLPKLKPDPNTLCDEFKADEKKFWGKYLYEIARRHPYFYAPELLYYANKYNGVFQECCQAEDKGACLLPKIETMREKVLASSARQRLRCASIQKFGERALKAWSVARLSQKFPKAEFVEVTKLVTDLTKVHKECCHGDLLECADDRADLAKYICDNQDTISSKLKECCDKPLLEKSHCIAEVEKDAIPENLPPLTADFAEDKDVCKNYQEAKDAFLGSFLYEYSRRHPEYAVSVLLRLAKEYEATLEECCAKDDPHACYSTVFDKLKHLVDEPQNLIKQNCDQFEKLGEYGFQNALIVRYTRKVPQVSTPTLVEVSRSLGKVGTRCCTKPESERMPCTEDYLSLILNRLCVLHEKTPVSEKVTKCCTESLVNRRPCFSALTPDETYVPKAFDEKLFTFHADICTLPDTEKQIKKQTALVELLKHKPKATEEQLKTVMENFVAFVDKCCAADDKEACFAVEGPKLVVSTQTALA
Experimental: The human Protoarray nc3.0 study was performed as described by the manufacturer (obtained from Invitrogen Corporation; Carlsbad, Calif.). […] Arrays were scanned by GenePix 4000B (obtained from Molecular Devices Corporation; Sunnyvale, Calif.), and images analyzed using ProtoArray Prospector (Invitrogen).

binding result (BSA) | Binder | Aurora Kinase A phosphorylation of histone H3 (Ser10), in vitro kinase assay, Western blot (His-tagged PTTG1) | Aurora Kinase A phosphorylation of histone H3 (Ser10), in vitro kinase assay, Western blot (control His-GST protein)
– | GST-Aurora Kinase A (protein) MDRSKENCISGPVKATAPVGGPKRVLVTQQFPCQNPLPVNSGQAQRVLCPSNSSQRIPLQAQKLVSSHKPVQNQKQKQLQATSVPHPVSRPLNNTQKSKQPLPSAPENNPEEELASKQKNEESKKRQWALEDFEIGRPLGKGKFGNVYLAREKQSKFILALKVLFKAQLEKAGVEHQLRREVEIQSHLRHPNILRLYGYFHDATRVYLILEYAPLGTVYRELQKLSKFDEQRTATYITELANALSYCHSKRVIHRDIKPENLLLGSAGELKIADFGWSVHAPSSRRTTLCGTLDYLPPEMIEGRMHDEKVDLWSLGVLCYEFLVGKPPFEANTYQETYKRISRVEFTFPDFVTEGARDLISRLLKHNPSQRPMLREVLEHPWITANSSKPSNCQNKESASKQS | Addition of PTTG1 dose-dependently inhibited Aurora Kinase A histone H3 phosphorylation | GST-His has no effect at the same concentration
no binding | pituitary tumor transforming gene 1 (PTTG1) protein (other, biotinylated with biotin-XX sulfosuccinimidyl ester (protein array); biotin-lysine labeled during synthesis (as prey in pull-down); endogenous and unlabeled in co-immunoprecipitation, Used as biotinylated probe on the array, as endogenous protein of HCT116 lysates in co-IP, and as in vitro translated prey in the pull-down; also called securin) MATLIYVDKENGEPGTRVVAKDGLKLGSGPSIKALDGRSQVSTPRFGKTFDAPPALPKATRKALGTVNRATEKSVKTKGPLKQKQPSFSAKKMTEKTVKAKSSVPASDDAYPEIEKFFPFNPLDFESFDLPEEHQIAHLPLSGVPLMILDEERELEKLFQLGPPSPVKMPSPPWESNLLQSPSSILSTLDVELPPVCCDIDI | – | –
